Experimental data: patent publication CN115197321A (UNIV SICHUAN, dated 2022)
Positions count from the first letter of the chain named. Names may count otherwise. Read-outs that look alike come from different tables or passages of the source.

Key:
[1] = biological target: CD25-hIgG1Fc(人CD25胞外域的C端融合人IgG1的Fc段) (human) (UniProt P01589); assay: ELISA, coated CD25-hIgG1Fc 1 μg/mL
[2] = biological target: T1, CD25-His(人CD25胞外域的C端融合6×His标签) (human, UniProt P01589 22-240); assay: SPR (Biacore) binding kinetics, Figure 6
T1 construct: extracellular domain; Made in-house; also called 人CD25-His
T1 sequence: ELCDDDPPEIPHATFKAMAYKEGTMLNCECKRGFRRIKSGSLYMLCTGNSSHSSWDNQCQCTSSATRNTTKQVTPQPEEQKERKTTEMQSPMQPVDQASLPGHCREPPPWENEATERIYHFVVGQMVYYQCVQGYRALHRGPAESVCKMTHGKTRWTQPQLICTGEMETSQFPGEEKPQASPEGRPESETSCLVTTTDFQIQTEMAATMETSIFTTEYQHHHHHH

[3] = biological target: T2, 人CD25 (on CD25-positive cells: SU-DHL-1, U937, NK-92, human PBMC) (human, UniProt P01589 22-272); assay: flow cytometry on SU-DHL-1 and U937 cells, Figure 8
T2 construct: whole, on cells; Endogenous CD25 on human cells; also called IL-2Rα
T2 sequence (looked up): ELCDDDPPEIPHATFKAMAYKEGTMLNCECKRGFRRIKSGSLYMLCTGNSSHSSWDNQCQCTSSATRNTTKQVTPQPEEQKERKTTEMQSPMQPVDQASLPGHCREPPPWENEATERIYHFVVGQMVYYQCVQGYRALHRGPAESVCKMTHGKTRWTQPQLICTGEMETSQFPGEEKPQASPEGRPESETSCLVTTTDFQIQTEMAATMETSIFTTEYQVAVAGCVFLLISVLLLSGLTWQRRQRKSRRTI

[4] = biological target: T1, CD25-His(人CD25胞外域的C端融合6×His标签); assay: SPR (Biacore)
[5] = biological target: T1, CD25-His(人CD25胞外域的C端融合6×His标签); assay: SPR (Biacore); remark: listed apart in the source
鼠CD25(R&D公司) = biological target: T3, 鼠CD25(R&D公司) (鼠 (mouse), UniProt P01590 22-236, limits assumed); assay: ELISA, coated mouse CD25 50 ng/well, hybridoma supernatant
T3 construct: Bought protein
T3 sequence (looked up): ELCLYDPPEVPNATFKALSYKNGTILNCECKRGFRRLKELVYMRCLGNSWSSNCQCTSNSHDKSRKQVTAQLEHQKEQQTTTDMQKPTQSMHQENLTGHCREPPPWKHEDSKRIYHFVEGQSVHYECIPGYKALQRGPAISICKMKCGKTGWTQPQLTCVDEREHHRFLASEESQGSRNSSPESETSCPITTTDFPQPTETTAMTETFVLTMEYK

小鼠IgG (antibody)
OD450 [1]: < 0.3 OD

B1: 重组单克隆抗体F10-2 (antibody, V domains shown)
VH: QVQLKQSGPGLVQPSQSLSITCTVSGFSLTSYGVHWVRQSPGKGLEWLGVIWRGGSTDYNAAFMSRLSITKDNSKSQVFFKMNSLQAGDTAVYYCAKNERFYGFDYWGQGTTLTVSS
VL: DIVMTQAAFSNPVTLGTSASISCRSSKSLLHSNGITYLYWYLQKPGQSPQLLIYQMSNLASGVPDRFSSSGSGTDFTLRISRVEAEDVGVYYCAQNLELPTFGSGTKLEIK
notes: a human-mouse chimeric IgG1κ form was also made; also called 抗体F10-2(来自F10)
binding result [2]: binds
binding result [3]: binds

B2: 重组单克隆抗体7B7 (antibody, V domains shown)
VH: EVQLQESGPGLVKPSQSLSLTCTVTGYSITSDYAWNWIRQFPGNKLEWMGYINYSGSTSYNPSLKSRISITRDTSKNQFFLQLNSVTTEDTATYYCARKGGFFDVWGAGTTVTVSS
VL: DIQMTQTTSSLSASLGDRVTISCSASQGISNYLNWYQQKPDGTVKLLIYYTSSLHSGVPSRFSGSGSGTDYSLTISNLEPEDIATYYCLQYSKLPWTFGGGTKLEIK
notes: a human-mouse chimeric IgG1κ form was also made; also called 抗体7B7(来自B7)
binding result [2]: binds
binding result [3]: binds

B3: hF10-2-3(BM4+BM3) (antibody, V domains shown)
VH: QVQLKQSGPGLVKPSDTLSLTCTVSGFSLTSYGVHWVRQPPGKGLEWLGVIWRGGSTDYNAAFMSRLSITKDNSKSQVSLKLSSVTAADTAVYYCAKNERFYGFDYWGQGTLVTVSS
VL: B1 VL with A7S, A8P, F9L, N11L, L15P, T17E, S18P, S104G, L108V
notes: Made as for h7B7 (human IgG1κ)
Kd [4]: 10.5 nM
koff [4]: 0.00333 s⁻¹
kon [4]: 318000 M⁻¹ s⁻¹

B4: hF10-2-1(BM4+BM) (antibody, V domains shown)
VH: B3 VH
VL: B1 VL with A7S, A8P, F9L, N11L, L15P, T17E, S18P, R79K, S104G, L108V
notes: as for B3
binding result [4]: no binding

B5: hF10-2-2(BM5+BM) (antibody, V domains shown)
VH: B3 VH with Q6E, V37I, L48I
VL: B1 VL with A7S, A8P, F9L, N11L, L15P, T17E, S18P, R79K, S104G, L108V
notes: as for B3
binding result [4]: no binding

B6: hF10-2-4(BM5+BM3) (antibody, V domains shown)
VH: B3 VH with Q6E, V37I, L48I
VL: B1 VL with A7S, A8P, F9L, N11L, L15P, T17E, S18P, S104G, L108V
notes: as for B3
Kd [4]: 18.1 nM
koff [4]: 0.00126 s⁻¹
kon [4]: 69900 M⁻¹ s⁻¹

B7: 人源化抗体h7B7-15 (antibody, V domains shown)
VH: QVQLQESGPGLVKPSQTLSLTCAVYGYSITSDYAWNWIRQPPGKGLEWIGYINYSGSTSYNPSLKSRVTISVDTSKNQFSLKLSSVTAADTAVYYCARKGGFFDVWGQGTTVTVSS
VL: DIQMTQSPSSLSASVGDRVTITCSASQGISNYLNWYQQKPGKAPKLLIYYTSSLHSGVPSRFSGSGSGTDFTFTISSLQPEDIATYYCLQYSKLPWTFGGGTKVEIK
notes: Human IgG1κ; heavy chain 4 (IGHV4-34*09) with light chain 3 (IGKV1-33*01)
Kd [5]: 2.33 nM
koff [5]: 0.000356 s⁻¹
kon [5]: 153000 M⁻¹ s⁻¹

B8: h7B7-15A (antibody, V domains shown)
VH: B7 VH with N53A
VL: B7 VL
notes: Mutant of h7B7-15 in the N of the NYS motif of VH-CDR2; human IgG1κ as the parent; also called h7B7突变体 N53A
Kd [5]: 8.55 nM
koff [5]: 0.00103 s⁻¹
kon [5]: 121000 M⁻¹ s⁻¹

B9: h7B7-15Q (antibody, V domains shown)
VH: B7 VH with N53Q
VL: B7 VL
notes: Mutant of h7B7-15 in the N of the NYS motif of VH-CDR2; human IgG1κ as the parent; also called h7B7突变体 N53Q
Kd [5]: 21.1 nM
koff [5]: 0.00502 s⁻¹
kon [5]: 238000 M⁻¹ s⁻¹

B10: h7B7-15S (antibody, V domains shown)
VH: B7 VH with N53S
VL: B7 VL
notes: N53S mutant of h7B7-15; human IgG1κ as the parent; also called h7B7突变体 N53S
Kd [5]: 4.83 nM
koff [5]: 0.000554 s⁻¹
kon [5]: 115000 M⁻¹ s⁻¹

B11: h7B7-15Y (antibody, V domains shown)
VH: B7 VH with N53Y
VL: B7 VL
notes: Mutant of h7B7-15 in the N of the NYS motif of VH-CDR2; human IgG1κ as the parent; also called h7B7突变体 N53Y
binding result [5]: no binding

B12: 杂交瘤抗体B7 (antibody, IgG1, V domains shown)
VH: B2 VH
VL: B2 VL
notes: Mouse hybridoma antibody, mIgG1; the tie to the hybridoma antibody rests on that statement
binding result (鼠CD25(R&D公司)): no binding

B13: 杂交瘤抗体F10 (antibody, IgG2a, V domains shown)
VH: B1 VH
VL: B1 VL
notes: Mouse hybridoma antibody, mIgG2a; the tie to the hybridoma antibody rests on that statement
binding result (鼠CD25(R&D公司)): no binding
